According to paper PMC2120816:

Target: thyroglobulin of normal mice (mouse (endogenous in thyroid tissue)) (UniProt O08710)
Test: native gel or EMSA

stoichiometry N: 2
Substance: thyroglobulin of normal mice, O08710 21-2766
